Results on five molecules are retold here after US20240084003A1 (SIMCERE ZAIMING PHARMACEUTICAL, published 2024).

First the molecules themselves.
T1: human CD22, endogenous on Raji cells (human, UniProt P20273 20-847)
T1 construct: whole, on cells; Endogenous protein of the Raji cell line
T1 sequence (looked up): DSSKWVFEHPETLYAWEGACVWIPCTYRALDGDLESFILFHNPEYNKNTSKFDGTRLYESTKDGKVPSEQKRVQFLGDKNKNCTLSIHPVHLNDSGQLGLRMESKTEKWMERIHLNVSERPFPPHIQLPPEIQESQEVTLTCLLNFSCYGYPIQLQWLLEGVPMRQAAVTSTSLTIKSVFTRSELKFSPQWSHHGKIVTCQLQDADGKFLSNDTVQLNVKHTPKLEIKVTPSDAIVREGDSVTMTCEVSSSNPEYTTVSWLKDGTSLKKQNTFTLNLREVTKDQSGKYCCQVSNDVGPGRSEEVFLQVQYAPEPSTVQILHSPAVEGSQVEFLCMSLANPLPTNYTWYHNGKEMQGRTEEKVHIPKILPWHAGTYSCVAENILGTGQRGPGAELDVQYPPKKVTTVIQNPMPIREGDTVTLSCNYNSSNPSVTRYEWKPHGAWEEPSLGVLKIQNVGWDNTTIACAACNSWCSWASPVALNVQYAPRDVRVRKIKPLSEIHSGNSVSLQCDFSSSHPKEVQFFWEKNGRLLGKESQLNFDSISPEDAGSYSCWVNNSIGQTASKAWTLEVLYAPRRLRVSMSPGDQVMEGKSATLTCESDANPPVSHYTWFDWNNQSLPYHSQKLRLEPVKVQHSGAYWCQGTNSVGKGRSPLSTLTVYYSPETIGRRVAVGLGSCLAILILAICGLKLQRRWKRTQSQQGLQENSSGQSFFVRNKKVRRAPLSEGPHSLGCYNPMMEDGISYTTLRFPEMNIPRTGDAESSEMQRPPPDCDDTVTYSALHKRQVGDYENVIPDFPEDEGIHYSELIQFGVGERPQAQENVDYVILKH

T2: human CD22, full length, on CHO-K1-human CD22 2C4 cells (human, UniProt P20273 20-847)
T2 construct: Full-length human CD22 (NCBI NP_001762.2) stably transfected into CHO-K1
T2 sequence: T1 sequence (looked up)

T3: murine CD22 protein (ACROBiosystems, SI2-M52Ha) (murine, UniProt P35329 22-708)
T3 construct: extracellular domain; also called murine CD22-ECD; murine CD22-ECD-His
T3 sequence (looked up): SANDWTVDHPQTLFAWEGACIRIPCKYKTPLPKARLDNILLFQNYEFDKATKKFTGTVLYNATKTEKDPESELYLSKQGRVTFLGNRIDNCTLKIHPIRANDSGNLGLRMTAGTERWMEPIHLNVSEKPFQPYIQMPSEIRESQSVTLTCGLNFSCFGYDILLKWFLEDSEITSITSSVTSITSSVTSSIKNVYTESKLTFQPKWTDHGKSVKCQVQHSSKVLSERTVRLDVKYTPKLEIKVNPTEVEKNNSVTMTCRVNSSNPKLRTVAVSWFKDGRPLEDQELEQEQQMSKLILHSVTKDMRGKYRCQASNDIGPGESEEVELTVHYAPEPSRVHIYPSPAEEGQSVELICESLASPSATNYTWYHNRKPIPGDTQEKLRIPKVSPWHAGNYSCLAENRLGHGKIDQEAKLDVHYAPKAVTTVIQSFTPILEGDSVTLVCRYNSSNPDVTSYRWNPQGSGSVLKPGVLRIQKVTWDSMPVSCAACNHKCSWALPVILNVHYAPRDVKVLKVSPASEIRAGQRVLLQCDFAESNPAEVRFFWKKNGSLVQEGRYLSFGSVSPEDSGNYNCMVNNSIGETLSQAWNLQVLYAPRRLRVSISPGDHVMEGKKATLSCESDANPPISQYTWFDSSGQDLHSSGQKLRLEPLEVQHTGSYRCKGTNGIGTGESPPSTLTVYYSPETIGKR

B1: F1.216.2 human-murine chimeric antibody (antibody, human IgG1, kappa, V domains shown)
VH: QVQLQQSGPEVVRPGASVKISCKASGYAFSSSWMNWMKQRPGKALEWIGRIYPGDGDTNYSGEFKVKATLTADKSSSTAYMQLSSLTSEDSAVYFCAREGSYYSNPWYFDYWGQGTTLTVSS
VL: DVLVTQTPLSLPVSLGDQASISCRSSQSIVQSNGDTYLEWYLQKPGQSPKLLIYKVSNRFSGVPDRFSGSGSGTDFTLKISRVEAEDLGVYYCFQGSHVPFTFGSGTKLEIKR
notes: Chimeric, human IgG1 / kappa
B2: F1.224.1 human-murine chimeric antibody (antibody, human IgG1, kappa, V domains shown)
VH: EVLLHQSGPELVKPGASVKISCKASGYTFTDFNMDWVRQRHGQSLEWIGDVNPNNGGTIYNQKFKGKATLTVDKSSSTVYMDLRSLTSDDTAVYYCVRLGTSDYGEAWFISWGQGTVVTVSA
VL: DIVLTQSPASLAVSLGQRATISCRASQSVSTPRYSFMHWYQQKPGQPPKLLIKYASNLESGFPARFTGSGSGTDFTLNIHPVEEEDTAAYYCQQSWAIPWTFGGGTKLEIKR
notes: Chimeric, human IgG1 / kappa; VL tied by name
B3: F1.250.16 human-murine chimeric antibody (antibody, human IgG1, kappa, V domains shown)
VH: QVQLQQSGAEQVKPGASVKMSCKASGYTFTTYPIEWMKQNHGESLDWIGNIHPYNDDTEYNEKFKGKATLTVEKSSNTVFLELSRLTSDDSAVYYCVRGDYYNSRYWYFDVWGTGTTVTVSS
VL: DIVMTQSQKFMSTTVGDRVSITCKAGQNVRTAVAWYQQKPGQSPKLLIYSASTRYIGVPERFTGSGSGTDFTLTITNMQSEDLADYFCQQYSSFPLTFGTGTKLELKR
notes: as for B2
B4: F1.120.15 human-murine chimeric antibody (antibody, human IgG1, kappa, V domains shown)
VH: QVQLQQSGPELVKPGASVKISCKASGNAFSNSWMNWVKQRPGKGLEWIGRVYSEDGDTQYNGKFRDKATLTADRSTSTAYMQLSSLTSEDSAVYFCARWLIYYGTYGAMDYWGQGTSVTVSS
VL: DIQMTQTTSSLSASLGDRVTISCRASQDINNYLNWYHQKPDGTVKLLIYFTSRPYSGVPSRFSGSGSGTDYSLTISNLEQEDIATYFCQQGNTLPWTFGGGTKLEIKR
notes: Chimeric, human IgG1 / kappa
B5: F1.280.1 human-murine chimeric antibody (antibody, human IgG1, kappa, V domains shown)
VH: QIQLVQSGPELKKPGETVKISCKASGYTFTTYGMSWVKQTPGKGLTWMGWINTDSGVPTYADDFKRRFAFSLEASATTAYLQINNLKNEDTATYFCARGGPDYWGQGTTLTVSS
VL: DILLTQSPATLSVTPGETVSLSCRASQSIYKNLHWYHQKSHRSPRLLIKYASDSISGIPSRFTGSGSGTNFTLSINSVKPEDEGIYYCLQGYIVPLTFGAGTKLELKR
notes: Chimeric, human IgG1 / kappa

The target in the first assay is T1, human CD22, endogenous on Raji cells. The assay can be described thus: FACS, Raji cells. The source says: (§1) The required cells were scale-up cultured in a T-75 cell culture flask to the logarithmic growth phase. For the adherent cell CHO-K1, the medium was aspirated, the cells were washed 2 times with PBS buffer, and then digested with trypsin. After the digestion was terminated, the cells were washed 2 times with PBS buffer. For suspension cell Raji, the medium supernatant was directly centrifuged and discarded, and the cell pellet was washed 2 times with PBS. After counting the cells in the previous step, the cell pellet was resuspended with [PBS+2% (w/w) BSA] blocking solution to 2×10⁶ cells/ml, and added to a 96-well FACS reaction plate at 50 μl/well, and then the chimeric antibody test sample was added at 50 μl/well, and incubated on ice for 2 hours. The mixture was centrifuged and washed 3 times with PBS buffer, Alexa Flour 488-labeled secondary antibody (purchased from Invitrogen, catalog number: A-11013) was added at 50 μl/well, and incubated on ice for 1 hour. The obtained mixture was centrifuged and washed 5 times with PBS, and FACS (FACS Canto™, purchased from BD Company) was used for detection and result analysis. Data analysis was performed by software (CellQuest) to obtain the mean fluorescence density (MFI)of the cells. And then software (GraphPad Prism8) was used for analysis, data fitting, and EC50 value calculation. […] The same method was used to detect the binding of the chimeric antibodies to endogenous CD22-negative cell MoLT4 cells (purchased from ATCC, CRL-1582) and CHO-K1 cells.
As to B1, the EC50 turned out to be 0.16 nM and the “Maximum mean fluorescence intensity” value worked out at 25300 MFI.

For B2, the response was half-maximal at 0.65 nM (EC50) and the “Maximum mean fluorescence intensity” value stood at 23600 MFI.

For the molecule B3, the 50% effective concentration (EC50) was determined as 0.16 nM and the “Maximum mean fluorescence intensity” value was determined as 25000 MFI.

Turning to B4, it took 0.89 nM to reach a half-maximal effect (EC50) and the “Maximum mean fluorescence intensity” value was found to be 23700 MFI.

As to B5, the EC50 was 0.5 nM and the “Maximum mean fluorescence intensity” value was determined as 25000 MFI.

For another assay, the target named is T2, human CD22, full length, on …. Description: FACS, CHO-K1-human CD22 2C4 cells.
From the text: as §1
In general terms: In flow cytometry, cells or beads pass a laser one at a time.
With B1, it took 0.32 nM to reach a half-maximal effect (EC50) and the “Maximum mean fluorescence intensity” value was found to be 31500 MFI.

For B2, the half-maximal effective concentration (EC50) was found to be 0.99 nM and the “Maximum mean fluorescence intensity” value was determined as 30400 MFI.

Consider B3, for which the response was half-maximal at 0.49 nM (EC50) and the “Maximum mean fluorescence intensity” value was determined as 37400 MFI.

As to B4, the EC50 is 1.07 nM and the “Maximum mean fluorescence intensity” value was determined as 27900 MFI.

B5: the half-maximal effective concentration (EC50) came to 0.92 nM and the “Maximum mean fluorescence intensity” value came out at 43800 MFI.

The target of another assay is T3, murine CD22 protein (ACROBiosystems, …). The assay can be described thus: ELISA, coated murine CD22, 10 nM Ab. The protocol: (§2) In order to detect the binding activity of CD22 human-murine chimeric antibodies to CD22 protein, the purified human CD22-ECD-His protein obtained in Example 2 was diluted with PBS to a final concentration of 2 μg/mL, and then added to 96-well ELISA plate at 100 μl/well. The plate was sealed with plastic film and incubated overnight at 4° C., the plate was washed 2 times with PBS the next day, and then a blocking solution [PBS+2% (w/w) BSA] was added for blocking at room temperature for 2 hours. […] After incubation at 37° C. for 2 hours, the plate was washed 3 times with PBS. HRP (horseradish peroxidase)-labeled secondary antibody (purchased from Sigma, catalog number: A0170) was added, and incubated at 37° C. for 2 hours, and the plate was washed 5 times with PBS. TMB substrate was added at 50 μl/well, and incubated at room temperature for 30 minutes, then a stop solution (1.0 N HCl) was added at 50 μl/well.
(§3) In order to detect the species cross-binding activity of the chimeric antibodies, an ELISA plate was coated with commercial murine CD22 protein (ACROBiosystems, catalog number: SI2-M52Ha) and monkey CD22 protein (ACROBiosystems, catalog number: SI2-R52Ha), respectively, and the ELISA detection was performed according to the method in Example 5.1.
With B1, the OD450 was 0.06 OD450.

Take B2: the OD450 came out at 0.1 OD450.

The molecule B3 showed an OD450 of 0.06 OD450.

As to B4, the OD450 was 0.06 OD450.

B5 returned an OD450 of 0.07 OD450.

A further assay has the same target. The assay can be described thus: ELISA, coated murine CD22, 0.1 nM Ab. The protocol: as §2, §3
(An ELISA detects its analyte on a solid surface through an enzyme-linked reagent.)
For B1, the OD450 came out at 0.05 OD450.

As to B2, the OD450 amounted to 0.05 OD450.

The molecule B3 showed an OD450 of 0.05 OD450.

The molecule B4 yielded an OD450 of 0.05 OD450.

Molecule B5 came in with an OD450 of 0.05 OD450.

The next assay shares this target. The assay can be described thus: ELISA, coated murine CD22, 100 nM Ab. The protocol: as §2, §3
On to B1, for which the OD450 was found to be 0.08 OD450.

Regarding B2, the OD450 was 0.07 OD450.

Take B3: the OD450 is 0.06 OD450.

Molecule B4 returned an OD450 of 0.06 OD450.

Consider B5, for which the OD450 turned out to be 0.16 OD450.

A further assay has the same target. The assay can be described thus: ELISA, coated murine CD22, 0.01 nM Ab. The protocol: as §2, §3
Consider B1, for which the OD450 turned out to be 0.05 OD450.

As for B2, the OD450 amounted to 0.06 OD450.

Molecule B3 gave an OD450 of 0.05 OD450.

The molecule B4 had an OD450 of 0.05 OD450.

In turn, B5 yielded an OD450 of 0.05 OD450.

The target is the same in another assay. The assay can be described thus: ELISA, coated murine CD22, 0.001 nM Ab. The protocol: as §2, §3
For the molecule B1, the OD450 worked out at 0.05 OD450.

With B2, the OD450 was 0.05 OD450.

In the case of B3, the OD450 was 0.05 OD450.

Regarding B4, the OD450 stood at 0.05 OD450.

B5 yielded an OD450 of 0.05 OD450.

The next assay shares this target. The assay can be described thus: ELISA, coated murine CD22, 0.0001 nM Ab. The protocol:
as §2, §3
Regarding B1, the OD450 amounted to 0.06 OD450.

B2 showed an OD450 of 0.05 OD450.

For B3, the OD450 is 0.05 OD450.

Molecule B4 yielded an OD450 of 0.05 OD450.

As for B5, the OD450 came out at 0.05 OD450.

A further assay shares this target. Description: ELISA, coated murine CD22, 0.00001 nM Ab. How it is done: as §2, §3
Regarding B1, the OD450 stood at 0.06 OD450.

In the case of B2, the OD450 turned out to be 0.06 OD450.

In turn, B3 gave an OD450 of 0.06 OD450.

B4 came in with an OD450 of 0.06 OD450.

For the molecule B5, the OD450 is 0.06 OD450.

The EC50 is the concentration needed to bring the measured effect to its halfway point. Read a low EC50 as an effect from little substance.
